Here are results for three molecules from patent US20130102031A1.

In general, IC50 refers to the concentration that gives 50% inhibition. In general, Kd refers to the concentration at which binding is half-saturated.

Assay [1] concerns the target βNGF (human) (UniProt P01138). The assay can be described thus: HTRF competition: test antibody titrated against biotinylated Tanezumab (Streptavidin-XL665) for cryptate-labelled βNGF, 665 nm/620 nm ratio, three parameter fit. (In TR-FRET formats the signal depends on donor and acceptor labels being close together.)
The next assay has as its target T1, human IL-17a (human) (UniProt Q16552).
T1 sequence (looked up): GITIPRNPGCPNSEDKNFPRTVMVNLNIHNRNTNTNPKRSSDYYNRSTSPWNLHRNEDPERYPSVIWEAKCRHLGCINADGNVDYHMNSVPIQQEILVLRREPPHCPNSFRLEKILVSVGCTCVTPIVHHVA
The assay can be described thus: KinExA 3000 solution equilibrium, N-curve analysis; human IL-17a on beads.

In assay [2] the target is βNGF (human) (UniProt P01138). The assay can be described thus: HTRF competition; test antibody titrated against biotinylated Tanezumab for labeled βNGF.

UniProt P01138, sequence (P01138 122-239 limits assumed): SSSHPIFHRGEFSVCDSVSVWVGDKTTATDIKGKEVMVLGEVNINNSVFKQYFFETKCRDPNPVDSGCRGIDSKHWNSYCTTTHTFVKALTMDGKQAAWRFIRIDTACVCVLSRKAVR

On to NEG CNT (antibody), for which the IC50 with βNGF (human) [1] was determined as 4910 nM.

B1: anti-IL17a antibody containing the HC lacking the CDR3 insertion (encoded by SEQ ID NO: 29) (antibody, part only; not given: light chain and constant region, V domains shown, part only)
VH: EVQLVESGGGLVQPGGSLRLSCAASGFTFSNHWMNWVRQTPGKGLEWVAAINEDGSEKYYVGSVKVRFTISRDNAKNSLYLQMNSLRVEDTAVYYCARDYYDILTDYYIHYWYFDLWGRGTLVTVSSASTKGPSVFPLAP
As to B1, the dissociation constant Kd in the assay with human IL-17a (human) was 0.067 nM.

B2: anti-NGF antibody containing the HC with a CDR1 insertion encoded by SEQ ID NO: 19 (antibody, part only; not given: light chain and constant region, V domains shown, part only)
VH: QVQLVQSGAEVKKPGSSVKVSCKASGDTFSNYATGDTFSNYAISWVRQAPGQGFEWMGGIIPIFGIANYAQKFQGRVTITADESTSTAYMELSSLRSEDTAVYYCARGPEYYDYVWGSYRYNYFDYWGQGTLVTVSS
B2 returned a fold more potent IC50 than the HC encoded by SEQ ID NO: 16 with βNGF (human) [2] of 6 fold. Further, in the assay with βNGF (human) [1], the IC50 was 181 nM.
